The source of these data is patent US20240301052A1 (LANOVA MEDICINES DEVELOPMENT, published 2024).

Numbering of substitutions follows the chain as printed. Like-named read-outs stand apart in the source and are kept apart here.

The target of assay [1] is T1, human SLC34A2 (human, UniProt O95436 1-690).
T1 construct: whole, on cells; also called human solute carrier 34 A2; NaPi2b
T1 sequence (looked up): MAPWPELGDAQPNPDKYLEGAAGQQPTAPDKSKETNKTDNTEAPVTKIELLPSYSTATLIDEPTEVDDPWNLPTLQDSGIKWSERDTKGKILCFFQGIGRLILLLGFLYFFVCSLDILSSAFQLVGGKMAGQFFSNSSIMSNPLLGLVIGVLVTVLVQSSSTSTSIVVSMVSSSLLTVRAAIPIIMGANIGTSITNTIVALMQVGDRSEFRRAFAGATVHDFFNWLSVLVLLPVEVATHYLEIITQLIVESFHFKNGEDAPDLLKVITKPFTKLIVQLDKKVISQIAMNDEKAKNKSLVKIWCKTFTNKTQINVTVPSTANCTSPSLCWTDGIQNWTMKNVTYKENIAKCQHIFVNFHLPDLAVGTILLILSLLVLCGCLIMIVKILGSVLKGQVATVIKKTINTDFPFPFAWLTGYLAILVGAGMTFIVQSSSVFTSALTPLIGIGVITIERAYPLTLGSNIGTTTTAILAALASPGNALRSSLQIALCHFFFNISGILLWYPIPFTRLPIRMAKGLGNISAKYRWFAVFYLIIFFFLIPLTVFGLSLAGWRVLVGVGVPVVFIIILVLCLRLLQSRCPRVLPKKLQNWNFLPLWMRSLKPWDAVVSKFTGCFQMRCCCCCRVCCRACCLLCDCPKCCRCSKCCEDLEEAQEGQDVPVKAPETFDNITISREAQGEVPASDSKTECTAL
As to the kind of experiment: FACS, OVCAR3 cells. Background: A flow cytometer gives signals particle by particle.

The target of assay [2] is T2, Rhesus SLC34A2 (Rhesus, UniProt F7HDA3 1-690).
T2 construct: whole, on cells
T2 sequence: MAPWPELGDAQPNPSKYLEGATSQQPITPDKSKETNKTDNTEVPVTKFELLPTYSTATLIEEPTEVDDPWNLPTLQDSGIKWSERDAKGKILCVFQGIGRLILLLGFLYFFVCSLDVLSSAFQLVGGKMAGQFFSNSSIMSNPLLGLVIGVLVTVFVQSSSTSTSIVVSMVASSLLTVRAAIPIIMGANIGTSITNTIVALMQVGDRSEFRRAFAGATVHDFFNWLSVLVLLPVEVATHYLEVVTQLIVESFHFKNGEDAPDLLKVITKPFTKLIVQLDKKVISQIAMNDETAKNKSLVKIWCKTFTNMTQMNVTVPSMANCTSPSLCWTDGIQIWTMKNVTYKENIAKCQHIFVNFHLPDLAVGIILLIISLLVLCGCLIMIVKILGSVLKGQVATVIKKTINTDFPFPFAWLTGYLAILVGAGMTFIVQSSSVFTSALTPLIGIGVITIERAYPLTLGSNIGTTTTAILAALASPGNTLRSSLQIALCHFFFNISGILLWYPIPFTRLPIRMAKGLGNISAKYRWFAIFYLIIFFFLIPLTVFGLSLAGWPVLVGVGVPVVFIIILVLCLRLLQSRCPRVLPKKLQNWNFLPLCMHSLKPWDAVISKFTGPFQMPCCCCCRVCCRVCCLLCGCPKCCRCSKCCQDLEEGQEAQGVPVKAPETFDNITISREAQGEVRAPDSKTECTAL
As to the kind of experiment: FACS, HEK293/Rhesus SLC34A2 cells.

In a further assay the target is T3, Cynomolgus SLC34A2 (Cynomolgus, UniProt A0A2K5UHY1 1-690).
T3 construct: whole, on cells; also called Cyno SLC34A2
T3 sequence: T2 sequence with P325H, I530V
As to the kind of experiment: FACS, cells expressing Cynomolgus SLC34A2.

In assay [3] the target is T2, Rhesus SLC34A2. As to the kind of experiment: FACS, HEK293/Rhesus SLC34A2 cells. Here is the method:
Briefly, the Rhesus SLC34A2 expressing HEK293 engineering cells (HEK293/Rhesus_SLC34A2) were incubated with chimeric Abs (from 200 nM, 4 folds dilution, 8 points). After incubation at 4° C. for 60 minutes, the cells were washed with FACS buffer twice, then stained with fluorescent conjugated secondary antibody at 4° C. for 30 minutes. After that the cells were washed twice and analyzed by flow cytometry.
The source holds these as a separate data set.

Assay [4] deals with T1, human SLC34A2. Description: FACS, HEK293/human SLC34A2 cells. Here is the method: Briefly, OVCAR3 cells or HEK293 cells expressing human SLC34A2 were incubated with chimeric antibodies (from 200 nM, 4 folds dilution, 8 points). After incubation at 4° C. for 60 minutes, the cells were washed with FACS buffer twice, then stained with fluorescent conjugated secondary antibody at 4° C. for 30 minutes. After that the cells were washed twice and analyzed by flow cytometry.

For assay [5], the target named is T1, human SLC34A2. Description: FACS, RMG-1 cells. Here is the method: Based on the foregoing cell-based binding results, some of the chimeric antibodies were selected for further cell based binding on human SLC34A2 expressing cells using flow cytometry. RMG-1 cells were incubated with the selected chimeric antibodies (from 200 nM, 4 folds dilution, 8 points). After incubation at 4° C. for 60 minutes, the cells were washed with FACS buffer twice, then stained with fluorescent conjugated secondary antibody at 4° C. for 30 minutes. Afterwards the cells were washed twice and analyzed by flow cytometry.

The target in assay [6] is T1, human SLC34A2. Description: cell-based or functional assay.
The target of assay [7] is T1, human SLC34A2. Description: FACS, HEK293/human SLC34A2 cells. The method, then:
The PTM-derisked VH chains were first tested for their impact on target binding. Cell based binding of PTM Abs on human SLC34A2 expressing cells were assessed using flow cytometry. Briefly, the HEK293/H_SLC34A2 cells were incubated with PTM Abs (from 200 nM, 4 folds dilution, 8 points). After incubation at 4° C. for 60 minutes, the cells were washed with FACS buffer twice, then stained with fluorescent conjugated secondary antibody at 4° C. for 30 minutes. After that the cells were washed twice and analyzed by flow cytometry.
The source holds these as a separate data set.

Assay [8] deals with T1, human SLC34A2. As to the kind of experiment: cell-based or functional assay. The source holds these as a separate data set.
Assay [9] addresses T1, human SLC34A2. Description: FACS, OVCAR3 cells. An outline of the steps: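 Flow cytometry binding: cells (OVCAR3, or HEK293 transfected with human SLC34A2) exposed 60 min at 4° C to chimeric hIgG1, 8-point 4-fold series starting 200 nM. Washed, stained 30 min at 4° C with fluorescent anti-human secondary, then analysed.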
The source holds these as a separate data set.

Assay [10] has as its target T1, human SLC34A2. As to the kind of experiment: FACS, OVCAR3 cells. The source holds these as a separate data set.
Assay [11] has as its target T1, human SLC34A2. As to the kind of experiment: FACS, RMG-1 cells. The method, then:
(§1) In another testing, cell based binding of hu Abs on human SLC34A2 expressing cells were assessed using flow cytometry. Briefly, the HEK293/H_SLC34A2, OVCAR3 and RMG-1 cells were incubated with hu Abs. After incubation at 4° C. for 60 minutes, the cells were washed with FACS buffer twice, then stained with fluorescent conjugated secondary antibody at 4° C. for 30 minutes. After that the cells were washed twice and analyzed by flow cytometry.
The source holds these as a separate data set.

In assay [12] the target is T2, Rhesus SLC34A2. Description: FACS, HEK293/Rhesus SLC34A2 cells. This is another data set of the same source.
Assay [13] concerns the target T1, human SLC34A2. As to the kind of experiment: FACS, HEK293/human SLC34A2 cells. The method, then:
as §1
The source holds these as a separate data set.

The target of assay [14] is T1, human SLC34A2. As to the kind of experiment: cell-based or functional assay. The source holds these as a separate data set.
Assay [15] concerns the target T1, human SLC34A2. As to the kind of experiment: FACS, OVCAR3 cells. The method, then:
as §1
The source holds these as a separate data set.

B1: xi55E5B6D12 hIgG1 (antibody, V domains shown)
VH: QVQLQQSGAEVVNSGASVKMSCKASGYTFTTYNMHWVKQTPGQGLEWIGAIYPGNGDTSYNQRFKGKATFTADRSSGTAYMQLSSLPSEDSAVYYCARGGYANGALVDWGQGTLVTVSA
VL: DILMTQSHKFMSTSVGDRVTITCKASQDVGTAVAWYQNKPGQSPKLLIFWTSTRHTGVPDRFTGSGSGTDFTLTISNVQSEDLADYFCQQYSRQPLTFGPGTKLEIK
notes: chimeric, hIgG1
The term EC50 denotes the concentration at which the effect is half-maximal. Lower therefore signals an effect from little substance. As to B1, the EC50 was 5.1 nM in the assay with human SLC34A2 [1]; 4.9 nM with Rhesus SLC34A2 [2]; 2.7 nM with Cynomolgus SLC34A2; 2.46 nM with Rhesus SLC34A2 [3]; 1.8 nM with human SLC34A2 [4]; 3.48 nM with human SLC34A2 [5]. In addition, the EC50 in the assay with human SLC34A2 [7] amounted to 1.48 nM; with human SLC34A2 [9], 3.31 nM. Further, the “Top (MFI)” value with human SLC34A2 [1] is 71400 MFI; with Rhesus SLC34A2 [2], 46400 MFI; with Cynomolgus SLC34A2, 3540 MFI; in the assay with Rhesus SLC34A2 [3], 15900 MFI; with human SLC34A2 [4], 115000 MFI; with human SLC34A2 [5], 9500 MFI. In addition, the “Top (MFI)” value in the assay with human SLC34A2 [7] is 30400 MFI; with human SLC34A2 [9], 42900 MFI. Also, the “cytotoxicity EC50” value with human SLC34A2 [6] worked out at 0.69 nM. In addition, the “cytotoxicity Inhibition %” value with human SLC34A2 [6] came out at 96.7%. Moreover, the “ADCC reporter EC50” value with human SLC34A2 [8] was found to be 3 nM. Further, the “ADCC reporter Top (MFI)” value with human SLC34A2 [8] was found to be 530000 MFI.

B2: 91C9F1.p1.z4 hIgG1 (antibody, V domains shown)
VH: QVQLVQSGAEVKKPGSSVKVSCKASGFFFTEYIIHWVRQAPGQGLEWMGGIIPNNDVTNYKQNFRGRVTITADESTSTAYMELSSLRSEDTAVYYCARWRNAYYSAMDSWGQGTTVTVSS
VL: DIVVTQSPSSLSTSVGDRVTITCTASQDVGTAVAWYQQKPGKSPKLLIYWASTRHTGVPERFTGSGSGTDFTLTISSVQPEDVATYFCQQYRTSPLTFGVGTKLELK
notes: humanized hIgG1
For the molecule B2, the EC50 with human SLC34A2 [10] came out at 1.12 nM; in the assay with human SLC34A2 [11] it was 3.22 nM; with Rhesus SLC34A2 [12], 3.2 nM; with human SLC34A2 [13] it was 1.12 nM; in the assay with human SLC34A2 [15], 2.71 nM. Further, the “Top (MFI)” value in the assay with human SLC34A2 [10] turned out to be 34600 MFI; with Rhesus SLC34A2 [12] it was 6720 MFI. Also, the Top with human SLC34A2 [11] stood at 9820 MFI; in the assay with human SLC34A2 [13], 34600 MFI; with human SLC34A2 [15], 20200 MFI. In addition, in the assay with human SLC34A2 [14], the “ADCC reporter EC50” value was found to be 3.14 nM. For the same molecule, the “ADCC reporter Top (MFI)” value in the assay with human SLC34A2 [14] worked out at 137000 MFI.

B3: 91C9F1.p1.z10 hIgG1 (antibody, V domains shown)
VH: B2 VH with K12V, A24T, A40S, M48I, V68A, I70L, E74K
VL: B2 VL with V3Q, V4M, T63S, V78L, V100G, L104V, L106I
notes: humanized hIgG1
As to B3, the EC50 in the assay with human SLC34A2 [10] was determined as 2.32 nM; with human SLC34A2 [11], 3.91 nM; in the assay with Rhesus SLC34A2 [12], 4.2 nM; with human SLC34A2 [13] it was 2.32 nM; with human SLC34A2 [15] it was 3.96 nM. In addition, the figures for the “Top (MFI)” value with human SLC34A2 [10] and with Rhesus SLC34A2 [12] were 38100 MFI and 9230 MFI, respectively. The values for the Top in the assay with human SLC34A2 [11], with human SLC34A2 [13] and in the assay with human SLC34A2 [15] were 9590 MFI, 38100 MFI and 22300 MFI, respectively. The “ADCC reporter EC50” value with human SLC34A2 [14] stood at 2.37 nM. In the assay with human SLC34A2 [14], the “ADCC reporter Top (MFI)” value stood at 138000 MFI.
